Laboratory results from patent publication US8129349B2, “Treatment of disease by inducing cell apoptosis” (The Regents of the University of California, priority 2000, dated 2012).

Legend:
caspase 8 = biological target: T1, caspase 8 (Homo sapiens, UniProt Q14790); assay: In vitro self-activation of recombinant caspase 8; assay type: biochemical; conditions: peptides 200 μM, 2 h, procaspase 8 (0.2 μg), colorimetric substrate
T1 construct: 21 amino acid linker (vector-derived) (N); purchased Alexis Biochemicals 201-041-C005
T1 sequence (Q14790 217-479): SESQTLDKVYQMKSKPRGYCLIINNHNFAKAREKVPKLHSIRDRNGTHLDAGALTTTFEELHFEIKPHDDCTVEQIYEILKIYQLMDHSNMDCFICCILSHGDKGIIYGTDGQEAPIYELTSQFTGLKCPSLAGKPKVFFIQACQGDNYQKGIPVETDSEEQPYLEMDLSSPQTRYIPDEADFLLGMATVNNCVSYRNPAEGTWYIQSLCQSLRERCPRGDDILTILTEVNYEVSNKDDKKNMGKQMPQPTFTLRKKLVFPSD
Procedure: (§1) FIG. 5 provides results showing the direct association of C/EBPβ-Glu^217 with procaspases 1 and 8. […] Enzyme activity was measured in the absence (control) or presence of C/EBPβ peptides (200 μM) for 2 h, using a procaspases 1 (1U) (not shown) and 8 (0.2 μg) activity assay. Values are presented as the mean±one half the range of duplicates. Panel C provides results for cells cultured on a collagen type I matrix and incubated with the indicated cell permeant, purified synthetic N-acetyl, C-aldehyde C/EBPβ tetra-peptides (10 μM) or with recombinant C/EBPβ-HA peptides as indicated, together with the Chariot reagent (Active Motif) for 4 h. Control cells were incubated without peptides (P<0.05 for all peptides containing Ala^217).
FIG. 7 provides data showing that phosphorylation of rat C/EBPβ on Ser^105 prevents stellate cell apoptosis. Panel A provides results for mouse stellate cells transfected as described herein (See, FIG. 2), with mutant p90RSK or treated with lactacystin (10 μM) (closed bars), and co-transfected with CMV-rC/EBPβ-Asp^105 (1 μg each) (open bars) as indicated. Annexin-V-PE binding was determined as described for FIG. 2 (P<0.05 for rC/EBPβ-Asp^105). Panel B provides results of an annexin-V-PE assay for stellate cells from C/EBPβ^+/+ (closed circles) and rC/EBPβ-Asp^105 transgenic (open circles) mice treated with lactacystin (0-30 μM). The annexin-V-PE assay was performed 6 hours after treatment began (P<0.05 for rC/EBPβ-Asp^105 transgenic mice for 5-25 μM lactacystin). Panel C provides results for rC/EBPβ-HA constructs (0.3 μg) transfected into rat stellate cells. The expressed peptides were immunoprecipitated with anti-HA antibodies. Using a specific antibody, rCEBPβ-PSer^105 was detected only in cells that expressed wild-type rC/EBPβ. […] Reciprocal immunoprecipitations confirmed these associations. […] Enzyme activity was measured using a colorimetric substrate as described in the Examples. […]
(§2) Purified recombinant C/EBPβ peptides, expressed as known in the art (See, Descombes et al., supra; and Buck et al. (1994), supra), and purified synthetic N-acetyl, C-aldehyde tetrapeptides (200 μM) (American Peptide Company) were assayed for their ability to inhibit the activity of purified human recombinant caspases 1 (catalogue # 201-056) and 8 (catalogue # 201-041-C005) (Alexis Biochemicals). […] Caspase activity was determined by the release of the p-nitroaniline colorimetric (Alexis Biochemicals) substrate for caspase 1 (catalogue # 260-026) or 8 (catalogue # 260-045) within the linear part of the kinetic assay (Thornberry et al. (1997), supra; Stennicke and Salvesen, supra). […]

procaspase 8 = procaspase 8 (Homo sapiens, UniProt Q14790); assay: Co-immunoprecipitation of purified recombinant procaspase 8 with recombinant C/EBPβ peptides; assay type: binding; design: 21 amino acid linker (vector-derived) (N); purchased Alexis Biochemicals 201-041-C005; conditions: peptides 200 μM, procaspase 8 0.12 μg, quantitated by densitometry
Sequence of procaspase 8 (Q14790 217-479): as above
Procedure: as §1
as §2, with “Biochemicals). The sequence of caspase 8 includes Ser217 through Asp479 cloned into an expression vector containing a 21 amino acid linker at the N-terminus. Thus, the prodomain (first 220 amino acids) is essentially missing.” for “Biochemicals).”
To delineate the role of C/EBPβ on the activation of procaspases 1 and 8, the self-activation of recombinant procaspases 1 and 8 was induced in vitro (Wilson et al., supra; Margolin et al., supra; and Earnshaw et al., supra), and the effect of purified recombinant C/EBPβ peptides, produced as described previously (Descombes et al., supra; and Buck et al., (1994), supra) on this process was determined. […]

B1: C/EBPβ-Glu^217: modified murine C/EBPβ with mutation of Thr^217 to glutamic acid (SEQ ID NO:4), phosphorylation mimic (protein, listed as Mus musculus)
chain: MHRLLAWDAACLPPPPAAFRPMEVANFYYEPDCLAYGAKAARAAPRAPAAEPAIGEHERAIDFSPYLEPLAPAADFAAPAPAHHDFLSDLFADDYGAKPSKKPADYGYVSLGRAGAKAAPPACFPPPPPAALKAEPGFEPADCKRADDAPAMAAGFPFALRAYLGYQATPSGSSGSLSTSSSSSPPGTPSPADAKAAPAACFAGPPAAPAKAKAKKZVDKLSDEYKMRRERNNIAVRKSRDKAKMRNLETQHKVLELTAENERLQKKVEQLSRELSTLRNLFKQLPEPLLASAGHC
For B1, the “Inhibition of in vitro self-activation of caspase 8” value (caspase 8) was “inhibited the in vitro self-activation” and the “Co-immunoprecipitation of procaspase 8, fold more than the Ala^217 peptides” value (procaspase 8) was 12 fold.
